Source: patent publication US20210196796A1 (SYNTHEKINE, published 2021)
Where a chain is given by its changes, count along the chain named. In names and notes the source's numbering stands.

B1: ΔM23, SQVLK- (ligand)
chain: APTSSSTKKTQLQLSQLLVLLKILNGINNYKNPKLTRMLTFKFYMPKKATELKHLQCLEEELKPLEEVLNLAQSKNFHLRPRDLISNINVIVLELKGSETTFMCEYADETATIVEFLNRWITFCQSIISTLT
B2: SQVLIA (ligand)
chain: APTSSSTKKTQLQLSQLLVLLIAILNGINNYKNPKLTRMLTFKFYMPKKATELKHLQCLEEELKPLEEVLNLAQSKNFHLRPRDLISNINVIVLELKGSETTFMCEYADETATIVEFLNRWITFCQSIISTLT
B3: SQVLRA (ligand)
chain: B2 chain with I22R
B4: SQVLKQ (ligand)
chain: B2 chain with I22K, A23Q
B5: SQVLKW (ligand)
chain: B2 chain with I22K, A23W
B6: SQVLKY (ligand)
chain: B2 chain with I22K, A23Y
B7: SQVLHA (ligand)
chain: B2 chain with I22H
B8: SQVLYA, E116G (ligand)
chain: B2 chain with I22Y
B9: SQVLKF (ligand)
chain: B2 chain with I22K, A23F
B10: SQVLNA (ligand)
chain: B2 chain with I22N
B11: SQVLKS (ligand)
chain: B2 chain with I22K, A23S
B12: SQVLKH (ligand)
chain: B2 chain with I22K, A23H
B13: SQVLDA (ligand)
chain: B2 chain with I22D
B14: SQVLTA (ligand)
chain: B2 chain with I22T

What follows are binders tested against T1, orthogonal hCD122 receptor (hoRb), hCD122 with H133D and Y134F (human, UniProt P14784 27-550) (assay: cell-based or functional assay).
T1 sequence: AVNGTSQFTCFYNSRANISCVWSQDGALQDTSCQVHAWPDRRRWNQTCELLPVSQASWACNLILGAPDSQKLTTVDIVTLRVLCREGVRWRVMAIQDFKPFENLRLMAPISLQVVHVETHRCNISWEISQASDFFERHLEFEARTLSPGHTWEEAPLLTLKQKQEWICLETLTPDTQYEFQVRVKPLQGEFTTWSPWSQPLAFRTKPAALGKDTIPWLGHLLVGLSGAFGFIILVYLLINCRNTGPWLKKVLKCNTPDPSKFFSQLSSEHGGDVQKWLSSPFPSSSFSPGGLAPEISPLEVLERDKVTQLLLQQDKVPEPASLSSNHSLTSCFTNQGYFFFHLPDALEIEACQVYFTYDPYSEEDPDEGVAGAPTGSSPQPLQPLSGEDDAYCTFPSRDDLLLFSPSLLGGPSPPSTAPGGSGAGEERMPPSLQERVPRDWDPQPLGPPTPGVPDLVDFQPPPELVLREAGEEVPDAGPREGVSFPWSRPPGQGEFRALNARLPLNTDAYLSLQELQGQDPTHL
Throughout, for Relative Proliferation Fold Change 3F8 1:10: reference of the scale not given here.
Throughout, for Relative Proliferation Fold Change 3F8 1:2: reference of the scale not given here.
Throughout, for Relative Proliferation Fold Change 3F8 1:50: reference of the scale not given here.
Throughout, for Relative Proliferation Fold Change NKL 1:10: reference of the scale not given here.
Throughout, for Relative Proliferation Fold Change NKL 1:2: reference of the scale not given here.
Throughout, for Relative Proliferation Fold Change NKL 1:50: reference of the scale not given here.

Binder	3F8 Ortho Proliferation Signal 1:2	3F8 Ortho Proliferation Signal 1:10	3F8 Ortho Proliferation Signal 1:50	Relative Proliferation Fold Change 3F8 1:2	Relative Proliferation Fold Change 3F8 1:10	Relative Proliferation Fold Change 3F8 1:50
B1	6220 cts/min	4410 cts/min	2930 cts/min	12.9 fold	7.97 fold	2.82 fold
B2	18600 cts/min	10500 cts/min	3500 cts/min	0.45 fold	1.2 fold	0.77 fold
B3	33400 cts/min	32300 cts/min	19600 cts/min	43 fold	38.8 fold	30.2 fold
B4	45700 cts/min	64000 cts/min	33100 cts/min	31.1 fold	20 fold	29.5 fold
B5	40800 cts/min	32600 cts/min	20500 cts/min	36 fold	24.7 fold	34.3 fold
B6	39100 cts/min	50600 cts/min	24600 cts/min	29.5 fold	50 fold	30.3 fold
B7	32600 cts/min	35100 cts/min	19100 cts/min	80.2 fold	56.4 fold	25.8 fold
B8	12500 cts/min	8030 cts/min	2510 cts/min	29.7 fold	9.79 fold	2.73 fold
B9	42100 cts/min	48500 cts/min	21000 cts/min	42.8 fold	48.8 fold	17.4 fold
B10	32600 cts/min	35100 cts/min	19100 cts/min	80.2 fold	56.4 fold	25.8 fold
B11	43800 cts/min	55500 cts/min	26600 cts/min	90.8 fold	58.3 fold	24.2 fold
B12	25700 cts/min	17300 cts/min	18700 cts/min	39.9 fold	14.6 fold	13.7 fold
B13	33400 cts/min	32300 cts/min	19600 cts/min	43 fold	38.8 fold	30.2 fold
B14	24100 cts/min	15100 cts/min	6550 cts/min	0.46 fold	10.9 fold	5.95 fold

Target: T1, orthogonal hCD122 receptor (hoRb), …
Experiment: cell-based or functional assay
Remark: another data set of the same source

Binder	NKL Ortho Proliferation Signal 1:2	NKL Ortho Proliferation Signal 1:10	NKL Ortho Proliferation Signal 1:50	Relative Proliferation Fold Change NKL 1:2	Relative Proliferation Fold Change NKL 1:10	Relative Proliferation Fold Change NKL 1:50
B1	27600	19000	8950	2.87 fold	1.43 fold	0.73 fold
B2	13000	10700	6780	1.11 fold	0.78 fold	0.53 fold
B3	60800	68400	34300	4.33 fold	4.06 fold	2.28 fold
B4	74300	82000	49600	4.43 fold	4.61 fold	3.05 fold
B5	52000	36000	17900	3.55 fold	2.52 fold	1.33 fold
B6	52400	43800	21900	3.51 fold	2.64 fold	1.38 fold
B7	53000	26000	13300	3.46 fold	1.63 fold	0.87 fold
B8	13200	11600	8390	1.21 fold	0.83 fold	0.63 fold
B9	65100	44700	23200	3.54 fold	2.5 fold	1.43 fold
B10	50600	36500	17300	4.55 fold	3 fold	1.4 fold
B11	56200	59400	29000	4.79 fold	3.99 fold	2.11 fold
B12	44400	39200	18500	4 fold	2.7 fold	1.49 fold
B13	35100	22700	11600	2.55 fold	1.65 fold	0.95 fold
B14	26400	19400	7650	2.27 fold	1.38 fold	0.6 fold
